{
  "source": "paper PMC10219423",
  "about": "“Characterization of a New Thermostable and Organic Solution-Tolerant Lipase from Pseudomonas fluorescens and Its Application in the Enrichment of Polyunsaturated Fatty Acids” (International Journal of Molecular Sciences, 2023)",
  "test_system": "CCCCCCCC(=O)Oc1ccc([N+](=O)[O-])cc1",
  "experiment": "purified protein",
  "type": "biochemical, Pseudomonas fluorescens",
  "details": "Tris-HCl 50 mM, pH 8.0, 40 °C, ethanol and acetonitrile present, 0.01-2.0 mM substrate",
  "data": [
    {"substance": "LipB (Pseudomonas fluorescens)", "values": [
      {"measurement": "Km", "result": 810, "unit": "µM"}
    ]}
  ]
}
